Laboratory results as given in publication PMC5419587 (Virology, 2017).

Target: T1, SAMD9 1-385, purified (human, UniProt Q5K651 1-385)
T1 sequence (looked up): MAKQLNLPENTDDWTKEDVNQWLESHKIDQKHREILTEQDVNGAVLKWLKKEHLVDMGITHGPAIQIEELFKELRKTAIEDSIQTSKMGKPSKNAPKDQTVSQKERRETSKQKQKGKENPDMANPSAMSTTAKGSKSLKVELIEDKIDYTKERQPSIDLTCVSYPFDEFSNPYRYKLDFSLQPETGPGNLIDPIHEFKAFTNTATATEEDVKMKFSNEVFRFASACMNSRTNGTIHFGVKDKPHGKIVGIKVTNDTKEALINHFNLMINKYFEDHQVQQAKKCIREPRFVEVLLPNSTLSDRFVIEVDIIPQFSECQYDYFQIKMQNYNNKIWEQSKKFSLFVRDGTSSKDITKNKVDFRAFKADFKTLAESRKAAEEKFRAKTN
Assay: SPR

B1: MYXV M062 protein, purified (natural protein)
chain: MGVQHKLDIFLVSEGIAIKEANLLKGDSYGCTIKIKLDKEKTFKFVIVLEPEWIDEIKPIYMKVNDESVELELDYKDAIKRIYSAEVVLCSDSVINLFSDVDVSYTCEYPTIKVNTIKKYYSVQNRGMTYVHIESPINTKDKCWFVEKNGWYEDRTHS
Q: For B1, which Kd is on record?
A: 10 ± 5 µM
